Assay results from article PMC3328371.

Target: Dock8 (endogenous) (UniProt Q8C147)
Experiment: anti-Flag co-IP, Dock8 immunoblot
Conditions: reference: Flag-Mob1B wild type; sites T12,T35

binding against the reference: lost
Substance: Flag-Mob1B (previously MOBKL1A) (from UniProt Q7L9L4) Flag-Mob1B[Thr12Ala/Thr35Ala]
